Assay results taken from patent US20240270821A1, “GIP/GLP1/GCG TRI-RECEPTOR AGONISTS AND USES THEREOF” (priority 2023, published 2024).
Residue numbers refer to the chain shown, from its start.

T1: human GIP receptor (human) (UniProt P48546)
T1 sequence (looked up): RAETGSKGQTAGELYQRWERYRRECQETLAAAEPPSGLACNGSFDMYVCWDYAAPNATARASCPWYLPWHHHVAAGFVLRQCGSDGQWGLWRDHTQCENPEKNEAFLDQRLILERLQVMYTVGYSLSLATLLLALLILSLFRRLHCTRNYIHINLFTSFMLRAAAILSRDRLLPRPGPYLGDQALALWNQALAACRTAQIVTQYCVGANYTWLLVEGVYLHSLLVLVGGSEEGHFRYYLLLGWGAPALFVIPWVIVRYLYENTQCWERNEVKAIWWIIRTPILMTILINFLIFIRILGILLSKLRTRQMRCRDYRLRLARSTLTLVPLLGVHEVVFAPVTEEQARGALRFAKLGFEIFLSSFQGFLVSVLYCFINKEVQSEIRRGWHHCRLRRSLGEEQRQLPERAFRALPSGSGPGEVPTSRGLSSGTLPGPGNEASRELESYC

B1: Example 1166 (peptide)
chain: YXQGTXTSDXXIXLDXKAQXEFIEXLIEGGPSSGAPPPSGSE
modifications: Aib, αMeF, 4Pal, αMeS, αMeL, Orn, Me4Pal, αMeY, acyl, amide; synthetic construct; SITE 2: note = 2-Aminoisobutyric Acid; SITE 6: note = alpha-methyl-L-phenylalanine; SITE 10: note = 3-(4-Pyridyl)-L-alanine; SITE 11: note = alpha-methyl-L-serine; SITE 13: note = alpha-methyl-leucine; SITE 16: note = L-ornithine; SITE 17: note = Lysine is chemically modified th
B2: Example 1167 (peptide)
chain: B1 chain with A35E
modifications: non-natural residues; Lys acylated C18 diacid; C-terminal amide; synthetic construct; SITE 2: note = 2-Aminoisobutyric Acid; SITE 6: note = alpha-methyl-L-phenylalanine; SITE 10: note = 3-(4-Pyridyl)-L-alanine; SITE 11: note = alpha-methyl-L-serine; SITE 13: note = alpha-methyl-leucine; SITE 16: note = L-ornithine; SITE 17: note = Lysine is chemically modified th
B3: Example 1168 (peptide)
chain: YXQGTXTSDXXIXLDXKAQXEFIEXLIEGGPSSGAPPPSGGGE
modifications: non-natural residues, AEEA-γGlu-C18 diacid lysine acylation, C-terminal amide; synthetic construct; SITE 2: note = 2-Aminoisobutyric Acid; SITE 6: note = alpha-methyl-L-phenylalanine; SITE 10: note = 3-(4-Pyridyl)-L-alanine; SITE 11: note = alpha-methyl-L-serine; SITE 13: note = alpha-methyl-leucine; SITE 16: note = L-ornithine; SITE 17: note = Lysine is chemically modified th
B4: Example 1169 (peptide)
chain: B3 chain with A35E
modifications: non-natural residues; acylated Lys C18 diacid; C-term amide; synthetic construct; SITE 2: note = 2-Aminoisobutyric Acid; SITE 6: note = alpha-methyl-L-phenylalanine; SITE 10: note = 3-(4-Pyridyl)-L-alanine; SITE 11: note = alpha-methyl-L-serine; SITE 13: note = alpha-methyl-leucine; SITE 16: note = L-ornithine; SITE 17: note = Lysine is chemically modified th
B5: Example 1170 (peptide)
chain: YXQGTXTSDXXIXLDXKAQXEFIEXLIEGGPSSGAPPPSGE
modifications: non-natural residues; acylated Lys; C-terminal amide; synthetic construct; SITE 2: note = 2-Aminoisobutyric Acid; SITE 6: note = alpha-methyl-L-phenylalanine; SITE 10: note = 3-(4-Pyridyl)-L-alanine; SITE 11: note = alpha-methyl-L-serine; SITE 13: note = alpha-methyl-leucine; SITE 16: note = L-ornithine; SITE 17: note = Lysine is chemically modified th
B6: Example 1171 (peptide)
chain: B5 chain with A35E
modifications: non-natural residues, (γGlu)2-C18 diacid lysine acylation, C-terminal amide; synthetic construct; SITE 2: note = 2-Aminoisobutyric Acid; SITE 6: note = alpha-methyl-L-phenylalanine; SITE 10: note = 3-(4-Pyridyl)-L-alanine; SITE 11: note = alpha-methyl-L-serine; SITE 13: note = alpha-methyl-leucine; SITE 16: note = L-ornithine; SITE 17: note = Lysine is chemically modified th
B7: Example 1172 (peptide)
chain: B1 chain
modifications: Aib, αMe residues, 4Pal, Orn, Me4Pal; acylated K; amide; synthetic construct; SITE 2: note = 2-Aminoisobutyric Acid; SITE 6: note = alpha-methyl-L-phenylalanine; SITE 10: note = 3-(4-Pyridyl)-L-alanine; SITE 11: note = alpha-methyl-L-serine; SITE 13: note = alpha-methyl-leucine; SITE 16: note = L-ornithine; SITE 17: note = Lysine is chemically modified th
B8: Example 1173 (peptide)
chain: B1 chain with A35E
modifications: (γGlu)2-C18 diacid on Lys; non-natural residues; amide; synthetic construct; SITE 2: note = 2-Aminoisobutyric Acid; SITE 6: note = alpha-methyl-L-phenylalanine; SITE 10: note = …; SITE 11: note = alpha-methyl-L-serine; SITE 13: note = alpha-methyl-leucine; SITE 16: note = L-ornithine; SITE 17: note = Lysine is chemically modified th
B9: Example 1174 (peptide)
chain: B3 chain
modifications: non-natural residues (Aib, αMeF, 4Pal, Orn, Me4Pal); lipidated Lys; C-amide; synthetic construct; SITE 2: note = 2-Aminoisobutyric Acid; SITE 6: note = alpha-methyl-L-phenylalanine; SITE 10: note = 3-(4-Pyridyl)-L-alanine; SITE 11: note = alpha-methyl-L-serine; SITE 13: note = alpha-methyl-leucine; SITE 16: note = L-ornithine; SITE 17: note = Lysine is chemically modified th
B10: Example 1175 (peptide)
chain: B3 chain with A35E
modifications: Aib, αMe residues, 4Pal, Orn, Me4Pal; acylated K; amide; synthetic construct; SITE 2: note = 2-Aminoisobutyric Acid; SITE 6: note = alpha-methyl-L-phenylalanine; SITE 10: note = 3-(4-Pyridyl)-L-alanine; SITE 11: note = alpha-methyl-L-serine; SITE 13: note = alpha-methyl-leucine; SITE 16: note = L-ornithine; SITE 17: note = Lysine is chemically modified th
B11: Example 1176 (peptide)
chain: B5 chain
modifications: non-natural residues; lipidated Lys; C-terminal amide; synthetic construct; SITE 2: note = 2-Aminoisobutyric Acid; SITE 6: note = alpha-methyl-2-fluoro-L-phenylalanine; SITE 10: note = 3-(4-Pyridyl)-L-alanine; SITE 11: note = alpha-methyl-L-serine; SITE 13: note = alpha-methyl-leucine; SITE 16: note = L-ornithine; SITE 17: note = Lysine is chemically mo
B12: Example 1177 (peptide)
chain: B5 chain with A35E
modifications: non-natural residues; Lys acylated C18 diacid via AEEA-γGlu2; C-term amide; synthetic construct; SITE 2: note = 2-Aminoisobutyric Acid; SITE 6: note = alpha-methyl-2-fluoro-L-phenylalanine; SITE 10: note = 3-(4-Pyridyl)-L-alanine; SITE 11: note = alpha-methyl-L-serine; SITE 13: note = alpha-methyl-leucine; SITE 16: note = L-ornithine; SITE 17: note = Lysine is chemically mo
B13: Example 1178 (peptide)
chain: B1 chain
modifications: non-natural residues; AEEA-(γGlu)2-C18 diacid on Lys; amide; synthetic construct; SITE 2: note = 2-Aminoisobutyric Acid; SITE 6: note = alpha-methyl-2-fluoro-L-phenylalanine; SITE 10: note = 3-(4-Pyridyl)-L-alanine; SITE 11: note = alpha-methyl-L-serine; SITE 13: note = alpha-methyl-leucine; SITE 16: note = L-ornithine; SITE 17: note = Lysine is chemically mo

The binders below were run against hGLP-1R (Homo sapiens, UniProt P43220) (assay: cell-based or functional assay).
hGLP-1R, sequence (P43220 24-463): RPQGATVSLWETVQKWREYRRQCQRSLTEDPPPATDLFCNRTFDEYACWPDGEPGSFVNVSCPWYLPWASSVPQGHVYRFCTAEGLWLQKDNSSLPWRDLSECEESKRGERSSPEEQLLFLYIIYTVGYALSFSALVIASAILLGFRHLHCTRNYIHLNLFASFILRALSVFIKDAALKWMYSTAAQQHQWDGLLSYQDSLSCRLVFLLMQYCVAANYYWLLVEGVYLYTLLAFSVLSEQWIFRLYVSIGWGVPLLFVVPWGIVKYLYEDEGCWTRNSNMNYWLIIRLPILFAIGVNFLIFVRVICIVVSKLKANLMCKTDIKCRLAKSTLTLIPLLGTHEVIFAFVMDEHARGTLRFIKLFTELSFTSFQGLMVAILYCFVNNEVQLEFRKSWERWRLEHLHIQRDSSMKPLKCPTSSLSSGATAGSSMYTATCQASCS
B1 was tested, and the Relative cAMP EC50 was 0.478 nM and the cAMP Rel EC50 (in the presence of 1% HSA) was 65.6 nM.
In the case of B2, the Relative cAMP EC50 is reported as 0.636 nM and the cAMP Rel EC50 (in the presence of 1% HSA) is reported as 89.2 nM.
B3 gave a Relative cAMP EC50 of 0.422 nM and a cAMP Rel EC50 (in the presence of 1% HSA) of 65.4 nM.
B4 was tested, and the Relative cAMP EC50 was 0.613 nM and the cAMP Rel EC50 (in the presence of 1% HSA) was 80 nM.
B5 gave a Relative cAMP EC50 of 0.395 nM and a cAMP Rel EC50 (in the presence of 1% HSA) of 50.2 nM.
For B6, the Relative cAMP EC50 was 0.529 nM and the cAMP Rel EC50 (in the presence of 1% HSA) was 52.9 nM.
Binder B7 has a Relative cAMP EC50 of 0.44 nM and a cAMP Rel EC50 (in the presence of 1% HSA) of 45.5 nM.
B8 was tested, and the Relative cAMP EC50 was 0.604 nM and the cAMP Rel EC50 (in the presence of 1% HSA) was 59.1 nM.
B9 showed a Relative cAMP EC50 of 0.454 nM and a cAMP Rel EC50 (in the presence of 1% HSA) of 60.2 nM.
In the case of B10, the Relative cAMP EC50 is reported as 0.572 nM and the cAMP Rel EC50 (in the presence of 1% HSA) is reported as 60.7 nM.
In the case of B11, the cAMP Rel EC50 (in the presence of 1% HSA) is reported as 43.8 nM.
Binder B12 has a Relative cAMP EC50 of 0.681 nM and a cAMP Rel EC50 (in the presence of 1% HSA) of 43.6 nM.
In the case of B13, the cAMP Rel EC50 (in the presence of 1% HSA) is reported as 39 nM.

These binders were tested against T1, human GIP receptor (human) (assay: cell-based or functional assay).
Work on B1 yielded a Relative cAMP EC50 of 0.00999 nM and a cAMP Rel EC50 (in the presence of 1% HSA) of 1.1 nM.
B2 was tested, and the Relative cAMP EC50 was 0.011 nM and the cAMP Rel EC50 (in the presence of 1% HSA) was 1.22 nM.
B3 showed a Relative cAMP EC50 of 0.00839 nM and a cAMP Rel EC50 (in the presence of 1% HSA) of 0.999 nM.
With B4 the Relative cAMP EC50 was 0.011 nM and the cAMP Rel EC50 (in the presence of 1% HSA) was 1.18 nM.
B5 gave a Relative cAMP EC50 of 0.00783 nM and a cAMP Rel EC50 (in the presence of 1% HSA) of 0.663 nM.
For B6, the Relative cAMP EC50 was 0.00953 nM and the cAMP Rel EC50 (in the presence of 1% HSA) was 0.718 nM.
Work on B7 yielded a Relative cAMP EC50 of 0.00886 nM and a cAMP Rel EC50 (in the presence of 1% HSA) of 0.7 nM.
In the case of B8, the Relative cAMP EC50 is reported as 0.00943 nM and the cAMP Rel EC50 (in the presence of 1% HSA) is reported as 0.764 nM.
B9 showed a Relative cAMP EC50 of 0.00896 nM and a cAMP Rel EC50 (in the presence of 1% HSA) of 0.707 nM.
With B10 the Relative cAMP EC50 was 0.00962 nM and the cAMP Rel EC50 (in the presence of 1% HSA) was 0.768 nM.
Work on B11 yielded a cAMP Rel EC50 (in the presence of 1% HSA) of 0.462 nM.
B12 showed a Relative cAMP EC50 of 0.0114 nM and a cAMP Rel EC50 (in the presence of 1% HSA) of 0.544 nM.
In the case of B13, the cAMP Rel EC50 (in the presence of 1% HSA) is reported as 0.544 nM.

Each binder was assayed against human glucagon receptor (human) (UniProt P47871) (assay: cell-based or functional assay).
human glucagon receptor (human), sequence (P47871 26-477): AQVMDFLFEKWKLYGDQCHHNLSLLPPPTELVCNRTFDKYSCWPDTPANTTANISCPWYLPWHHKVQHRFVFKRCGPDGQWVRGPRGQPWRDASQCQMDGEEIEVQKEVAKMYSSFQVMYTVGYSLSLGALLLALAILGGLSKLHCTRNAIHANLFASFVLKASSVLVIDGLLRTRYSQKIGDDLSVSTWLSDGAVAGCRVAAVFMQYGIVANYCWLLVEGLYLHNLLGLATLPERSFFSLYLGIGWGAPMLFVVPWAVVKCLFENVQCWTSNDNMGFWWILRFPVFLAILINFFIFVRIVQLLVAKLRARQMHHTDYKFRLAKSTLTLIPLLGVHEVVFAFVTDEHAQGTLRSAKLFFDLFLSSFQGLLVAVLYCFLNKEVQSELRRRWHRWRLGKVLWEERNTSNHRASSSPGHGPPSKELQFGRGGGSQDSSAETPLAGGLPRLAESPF
With B1 the Relative cAMP EC50 was 2.94 nM and the cAMP Rel EC50 (in the presence of 1% HSA) was 427 nM.
B2 showed a Relative cAMP EC50 of 2.16 nM and a cAMP Rel EC50 (in the presence of 1% HSA) of 274 nM.
For B3, the Relative cAMP EC50 was 2.63 nM and the cAMP Rel EC50 (in the presence of 1% HSA) was 364 nM.
With B4 the Relative cAMP EC50 was 2.43 nM and the cAMP Rel EC50 (in the presence of 1% HSA) was 304 nM.
Binder B5 has a Relative cAMP EC50 of 2.43 nM and a cAMP Rel EC50 (in the presence of 1% HSA) of 249 nM.
In the case of B6, the Relative cAMP EC50 is reported as 2.19 nM and the cAMP Rel EC50 (in the presence of 1% HSA) is reported as 233 nM.
B7 gave a Relative cAMP EC50 of 2.52 nM and a cAMP Rel EC50 (in the presence of 1% HSA) of 303 nM.
In the case of B8, the Relative cAMP EC50 is reported as 2.31 nM and the cAMP Rel EC50 (in the presence of 1% HSA) is reported as 254 nM.
B9 gave a Relative cAMP EC50 of 2.58 nM and a cAMP Rel EC50 (in the presence of 1% HSA) of 347 nM.
B10 was tested, and the Relative cAMP EC50 was 2.08 nM and the cAMP Rel EC50 (in the presence of 1% HSA) was 282 nM.
For B11, the cAMP Rel EC50 (in the presence of 1% HSA) was 229 nM.
In the case of B12, the Relative cAMP EC50 is reported as 4.23 nM and the cAMP Rel EC50 (in the presence of 1% HSA) is reported as 156 nM.
For B13, the cAMP Rel EC50 (in the presence of 1% HSA) was 270 nM.
